For assay [1], the target named is 2F8-HG (human). The experiment in a line: self-association; non-covalent nano-electrospray mass spectrometry at 0.01-10 µM.
For assay [2], the target named is 2F8-HG (human). Nature of the assay: self-association of HG half-molecules; non-covalent nano-electrospray mass spectrometry.

Turning to 2F8-HG (antibody), the percentage monomeric at low concentrations with 2F8-HG (human) [1] is 100%. In the assay with 2F8-HG (human) [2], this substance had a percentage molecules present as monomers of 15%.

For the origin of these results see patent US20100325744A1.
